Experimental data as given in patent publication US20260265390A1 (SHANDONG SIMCERE BIOPHARMACEUTICAL, published 2026).
Substitutions are numbered along the chain they refer to.

T1: human BCMA (B cell maturation antigen), expressed on cells (human, UniProt Q02223 1-184)
T1 construct: whole, on cells; Overexpressed on Flp-in CHO cells; also called Flp-inCHO-human BCMA cells; CD269
T1 sequence (looked up): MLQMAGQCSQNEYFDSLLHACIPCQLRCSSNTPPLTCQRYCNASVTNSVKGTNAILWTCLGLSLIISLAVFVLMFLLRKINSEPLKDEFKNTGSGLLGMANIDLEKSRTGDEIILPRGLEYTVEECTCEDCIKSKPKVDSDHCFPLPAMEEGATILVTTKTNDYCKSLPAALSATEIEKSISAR

B1: Tri-62 anti-BCMA-GPRC5D-CD3 trispecific antibody (other)
VH 1: EGQMVQSGAEVKKPGSSVKVSCKASGYMFTDHTFHWVRQAPGQGLEWMGYIYPRDQNTKYNEKFKGRVTITADKSTSTAYMELSSLRSEDTAVYYCARAGYYGSSHAMDYWGQGTTVTVSS
VL 1: DIQMTQSPSSLSASVGDRVTITCKASQDVSTAVAWYQQKPGKSPRLLIYSASSRYTGVPSRFSGSGSGTDFTFTISSLQPEDIATYYCQQLYSTPWTFGGGTKVEIK
VH 2: EVQLVQSGAEVKKPGSSVKVSCKASGYTFTSYGISWVRQAPGQGLEWMGEIYPRSGNTYYNEKFKGRVTLTADKSTSTAYMELSSLRSEDTAVYYCARGRAYGRNYPMDYWGQGTTVTVSS
VL 2: EIVLTQSPATLSLSPGERATLSCRASQSIGTSIHWYQQKPGQSPRLLIKYASESISGIPARFSGSGSGTDFTLTISSLEPEDFAVYYCQQSNSWPYTFGGGTKVEIK
VH 3: EVQLVESGGGVVQPGRSLRLSCAASGFTFTDYYMSWVRQAPGKGLEWVAMSRNKAKGHTIEYSSSVKGRFTISRDNSKNTLYLQMNSLRAEDTAVYYCARDTYESYDGYFDVWGQGTTVTVSS
VL 3: DIVMTQSPDSLAVSLGERATINCKSSQSLFNSRSRKNYLAWYQQKPGQTPKLLIYWASIRESGVPDRFSGSGSGTDFTLTISSLQAEDVAVYYCKQSYYLYTFGQGTKLEIK
chain 1: ESKYGPPCPPCPAPEAAGGPSVFLFPPKPKDTLMISRTPEVTCVVVDVSQEDPEVQFNWYVDGVEVHNAKTKPREEQFNSTYRVVSVLTVLHQDWLNGKEYKCKVSNKGLPSSIEKTISKAKGQPREPQVYTLPPSQEEMTKNQVSLWCLVKGFYPSDIAVEWESNGQPENNYKTTPPVLDSDGSFFLYSRLTVDKSRWQEGNVFSCSVMHEALHNHYTQKSLSLSLG
chain 2: B1 chain 1 with W148S, L150A, Y189V
notes: Trispecific antibody; Asymmetric (purification method B)
B2: Tri-49 anti-BCMA-GPRC5D-CD3 trispecific antibody (other)
VHH: EVQLVESGGGLVQPGGSLRLSCAASESISSIHIMAWYRQAPGKQRELVAGIRNDGSTVYVDSVKGRFTISRDNAKNSLYLQMNSLRAEDTAVYYCNADQGFGSYSEWERRSRWGQGTTVTVSS
VH 1: B1 VH 2
VL 1: B1 VL 2
VH 2: B1 VH 3
VL 2: B1 VL 3
chain 1: B1 chain 1
chain 2: B1 chain 1 with W148S, L150A, Y189V
notes: as for B1

Legend:
[1] = biological target: T2, human GPRC5D, expressed on cells (human, UniProt Q9NZD1 1-345); assay: FACS, CHOK1-human GPRC5D cells
T2 construct: whole, on cells; Overexpressed on CHOK1 cells; also called CHOK1-human GPRC5D cells
Description: (§1) Flp-inCHO-human BCMA cells and CHOK1-human GPRC5D cells were scale-up cultured in T-75 cell culture flask to the logarithmic growth phase, respectively, and the cells were pipetted to obtain a single cell suspension. After the cells were counted and centrifuged, the cell precipitate was resuspended to 2×10⁶ cells per milliliter with a FACS buffer (PBS+2% fetal bovine serum). The suspension was added to a 96-well FACS reaction plate at 50 μl/well. 8 concentrations of the anti-BCMA-GPRC5D-CD3 antibodies or control antibodies were added at 50 μl/well, wherein gradient dilution was performed at a dilution ratio of 5 from a concentration of 100 nM. The cells were incubated at 4° C. for 1 h. The obtained mixture was centrifuged and washed 3 times with a PBS buffer. […] The obtained mixture was centrifuged and washed 3 times with a PBS buffer. 100 μl of the mixture was taken for detection and result analysis by FACS (FACS Canto™, purchased from BD Company). Data analysis was performed by software (FlowJo) to obtain the mean fluorescence intensity (MFI) of the cells. Then, a software (GraphPad Prism8) was used for analysis, data fitting and EC50 calculation.

[2] = biological target: T3, monkey CD3, on activated monkey PBMC (monkey); assay: FACS, activated monkey PBMC
T3 construct: whole, on cells

[3] = biological target: T1, human BCMA (B cell maturation antigen), …; assay: FACS, Flp-inCHO-human BCMA cells
Description: as §1

[4] = biological target: T4, human CD3, endogenous on Jurkat cells and on activated human PBMC (human, UniProt P07766 23-207; P04234 22-171); assay: FACS, Jurkat cells
T4 construct: whole, on cells; CD3 complex as it stands on T cells

[5] = biological target: T4, human CD3, endogenous on Jurkat cells …; assay: FACS, activated human PBMC

T3 sequence (Q95LI5 22-198): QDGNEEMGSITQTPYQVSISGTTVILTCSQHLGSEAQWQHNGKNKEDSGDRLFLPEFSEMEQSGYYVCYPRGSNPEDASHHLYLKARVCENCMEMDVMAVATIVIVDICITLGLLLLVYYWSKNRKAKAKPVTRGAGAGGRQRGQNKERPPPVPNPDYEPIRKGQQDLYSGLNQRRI
T4 sequence (P07766 23-207, chain 1 of 2): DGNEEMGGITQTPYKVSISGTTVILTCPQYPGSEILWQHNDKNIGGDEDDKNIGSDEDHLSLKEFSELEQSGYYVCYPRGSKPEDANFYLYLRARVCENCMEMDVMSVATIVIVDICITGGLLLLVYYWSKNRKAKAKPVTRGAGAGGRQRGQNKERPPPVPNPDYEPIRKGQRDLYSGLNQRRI
T4 sequence (P04234 22-171, chain 2 of 2): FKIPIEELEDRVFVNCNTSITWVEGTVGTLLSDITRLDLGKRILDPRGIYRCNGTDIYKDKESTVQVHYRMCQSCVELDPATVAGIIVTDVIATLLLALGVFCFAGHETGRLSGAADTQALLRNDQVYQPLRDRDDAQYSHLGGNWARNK
T2 sequence (Q9NZD1 whole entry): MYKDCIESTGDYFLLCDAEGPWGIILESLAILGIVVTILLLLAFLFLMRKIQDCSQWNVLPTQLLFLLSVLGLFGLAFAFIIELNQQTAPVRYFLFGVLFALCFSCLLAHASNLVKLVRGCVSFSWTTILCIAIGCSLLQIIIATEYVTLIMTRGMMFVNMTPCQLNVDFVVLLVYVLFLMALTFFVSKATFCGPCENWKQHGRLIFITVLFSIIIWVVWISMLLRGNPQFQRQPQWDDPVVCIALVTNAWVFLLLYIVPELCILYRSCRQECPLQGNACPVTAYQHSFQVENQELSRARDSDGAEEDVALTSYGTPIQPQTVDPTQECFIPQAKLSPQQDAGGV

Row | Binder | EC50 [1] [nM] | EC50 [2] [nM] | Maximum mean fluorescence intensity [2] | EC50 [3] [nM] | Maximum mean fluorescence intensity [4] | Maximum mean fluorescence intensity [5] | EC50 [4] [nM] | EC50 [5] [nM]
1 | B1 | 0.4 | 85.5 | 740 | 14.5 | 462 | 452 | – | –
2 | B2 | – | 59.4 | – | – | – | – | 157 | 31.8
